One molecule from publication PMC7910438, “The TUTase URT1 connects decapping activators and prevents the accumulation of excessively deadenylated mRNAs to avoid siRNA biogenesis” (Nature Communications, 2021) can be followed below.

This assay concerns the target T1, 6His-GST-URT1 (Arabidopsis thaliana, UniProt O64642 1-764).
T1 construct: URT1, Arabidopsis thaliana, AT2G45620, 764 amino acids; amplified from cDNA; Plasmids in Supplementary Data 7; expression and purification in Supplementary Methods; source: E. coli BL21 DE3, purified; not shown: 6His, N-terminal, kept; GST, N-terminal, kept
T1 sequence (looked up): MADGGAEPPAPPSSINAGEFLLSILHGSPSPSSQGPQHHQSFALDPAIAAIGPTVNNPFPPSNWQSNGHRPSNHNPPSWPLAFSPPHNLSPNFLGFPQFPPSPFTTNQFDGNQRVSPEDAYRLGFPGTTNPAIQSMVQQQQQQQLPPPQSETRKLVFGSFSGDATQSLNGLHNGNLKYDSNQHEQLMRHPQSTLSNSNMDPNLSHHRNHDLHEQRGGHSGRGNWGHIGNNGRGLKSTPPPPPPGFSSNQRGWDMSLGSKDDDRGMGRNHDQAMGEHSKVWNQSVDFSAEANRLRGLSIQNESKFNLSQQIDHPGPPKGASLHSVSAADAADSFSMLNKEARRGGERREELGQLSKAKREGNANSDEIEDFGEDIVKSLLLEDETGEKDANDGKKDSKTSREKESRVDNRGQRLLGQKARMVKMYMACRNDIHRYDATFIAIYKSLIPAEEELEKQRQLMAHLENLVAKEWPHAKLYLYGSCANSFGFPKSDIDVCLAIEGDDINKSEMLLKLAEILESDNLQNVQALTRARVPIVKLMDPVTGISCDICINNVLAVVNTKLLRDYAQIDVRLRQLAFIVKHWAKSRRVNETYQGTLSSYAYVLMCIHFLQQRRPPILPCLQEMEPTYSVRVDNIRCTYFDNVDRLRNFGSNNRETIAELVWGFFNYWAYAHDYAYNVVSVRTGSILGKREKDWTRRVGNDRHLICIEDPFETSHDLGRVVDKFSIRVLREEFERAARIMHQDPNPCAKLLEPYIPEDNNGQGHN
As to the kind of experiment: pull-down; GST pull-down on glutathione sepharose; 10 pmol of each purified protein in 500 µl of 20 mM MOPS pH 7.2, 100 mM KCl, 15% glycerol, 0.1% Tween 20 with 100 ng/µl RNase A, 4 °C; SDS-PAGE, SYPRO Ruby. The following applies: both partners purified.

B1: 6His-MBP-DCP5 (natural protein, Arabidopsis thaliana, UniProt Q9C658 1-611, looked up)
chain: MAADNTGSKSSSAADSYVGSLISLTSKSEIRYEGILYNINTDESSIGLQNVRSFGTEGRKKDGPQVPPSDKVYEYILFRGTDIKDLQVKASPPVQPPASTINNDPAIIQSHYPSPMPTSGSLPSTASGSLPDISSHNGQPGQHGMGFQNAMPLYQPGGNLGSWGASPQPPMYWQGFYTPPPNGLPQLHQQSLIRPPHGLPMPNSLQQPLQYPNFNTPPPPTGSSSLQGSSLPEAPSSLFPFSTSSQMLAPSSLPFPGLPPVTLSSSLQSTLQSAPSPSLASEMAPPLLSNKAPITAPPTLPQDTNLLSFSLSTTRATEASTGLPLSNKPSVVTGPISPPQTTPLTSAPVAGVSSSISQDKPKPLLVTPGQLLQSGSSAVSLSPPSTNADKDVEVVQVSSSAGLEQSVPVTSEAQPPILPLPSSARPTQKPNGHSFPNHNGYRGRGRGRGRGAGRSHQVMKFTEDFDFTAMNEKFNKDEVWGHLGKSTTLDGDEDDDSPTVDEAELPKIEAKPVYNKDDFFDSLSSNTIDRESQNSRPRFSEQRKLDTETFGEFSRFRGGRGGRGGYGRNNGYSRGGYGGRGYGGYGGRGGGGGGYGYGGRGQGRGVSNRTT
notes: DECAPPING 5 (DCP5), Arabidopsis thaliana, AT1G26110; amplified from cDNA; source: E. coli BL21 DE3, purified; not shown: 6His, N-terminal, kept; MBP, N-terminal, kept
As for B1, the binding result is recorded as “binds”.
